Values of other authors as cited in publication PMC4900764.

Molecular target: PEX5 (Saccharomyces cerevisiae) (UniProt P35056)
Assay: ITC

UniProt P35056, sequence (P35056 whole entry): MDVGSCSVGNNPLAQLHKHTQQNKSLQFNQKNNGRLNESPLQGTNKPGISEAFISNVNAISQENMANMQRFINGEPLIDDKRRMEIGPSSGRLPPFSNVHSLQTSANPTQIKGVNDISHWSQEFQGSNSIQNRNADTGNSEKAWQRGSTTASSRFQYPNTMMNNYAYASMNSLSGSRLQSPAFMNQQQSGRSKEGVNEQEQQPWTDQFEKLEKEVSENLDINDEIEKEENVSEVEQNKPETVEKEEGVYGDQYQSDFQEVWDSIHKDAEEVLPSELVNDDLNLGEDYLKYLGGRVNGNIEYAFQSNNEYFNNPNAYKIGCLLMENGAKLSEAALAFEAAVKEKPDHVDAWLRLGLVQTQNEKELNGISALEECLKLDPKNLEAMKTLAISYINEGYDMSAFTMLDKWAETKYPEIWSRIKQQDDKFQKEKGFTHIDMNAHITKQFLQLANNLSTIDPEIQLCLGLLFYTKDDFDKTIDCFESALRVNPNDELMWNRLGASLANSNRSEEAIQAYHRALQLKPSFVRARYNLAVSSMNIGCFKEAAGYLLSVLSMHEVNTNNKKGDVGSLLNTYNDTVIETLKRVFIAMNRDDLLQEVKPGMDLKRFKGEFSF

- Kd: 190 nM
Substance: PCS60 (from UniProt P38137)
